According to patent US20030044418A1 (TEXAS A AND M UNIVERSITY SYSTEM UNIVERSITY, published 2003):

Assays:
thrombin digested Fg = molecular target: T1, thrombin digested Fg (human, UniProt P02671 36-629; P02675 45-491; P02679 27-437); assay: ELISA, Fg-coated wells pretreated with thrombin, biotin labeled rSdrG(50-597)
T1 construct: Fg coated on wells and treated with 1.0 NIH unit/ml thrombin for 30 min; also called thrombin-treated Fg; Fg treated with thrombin
T1 sequence 1: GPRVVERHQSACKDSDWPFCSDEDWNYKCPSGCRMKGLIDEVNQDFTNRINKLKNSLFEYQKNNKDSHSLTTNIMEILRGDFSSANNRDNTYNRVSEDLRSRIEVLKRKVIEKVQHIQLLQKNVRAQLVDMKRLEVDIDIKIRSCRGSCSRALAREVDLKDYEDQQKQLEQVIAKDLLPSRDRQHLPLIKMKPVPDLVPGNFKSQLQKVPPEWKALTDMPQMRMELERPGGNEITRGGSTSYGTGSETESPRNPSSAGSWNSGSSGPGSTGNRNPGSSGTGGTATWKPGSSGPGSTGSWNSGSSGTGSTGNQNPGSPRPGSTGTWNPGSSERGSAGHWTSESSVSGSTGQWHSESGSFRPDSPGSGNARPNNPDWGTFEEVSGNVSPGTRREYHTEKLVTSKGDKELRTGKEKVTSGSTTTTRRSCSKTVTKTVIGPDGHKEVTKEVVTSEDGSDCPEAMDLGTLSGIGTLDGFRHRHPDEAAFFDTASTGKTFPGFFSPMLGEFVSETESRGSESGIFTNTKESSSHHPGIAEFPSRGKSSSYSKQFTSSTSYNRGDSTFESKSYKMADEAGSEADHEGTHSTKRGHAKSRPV
T1 sequence 2: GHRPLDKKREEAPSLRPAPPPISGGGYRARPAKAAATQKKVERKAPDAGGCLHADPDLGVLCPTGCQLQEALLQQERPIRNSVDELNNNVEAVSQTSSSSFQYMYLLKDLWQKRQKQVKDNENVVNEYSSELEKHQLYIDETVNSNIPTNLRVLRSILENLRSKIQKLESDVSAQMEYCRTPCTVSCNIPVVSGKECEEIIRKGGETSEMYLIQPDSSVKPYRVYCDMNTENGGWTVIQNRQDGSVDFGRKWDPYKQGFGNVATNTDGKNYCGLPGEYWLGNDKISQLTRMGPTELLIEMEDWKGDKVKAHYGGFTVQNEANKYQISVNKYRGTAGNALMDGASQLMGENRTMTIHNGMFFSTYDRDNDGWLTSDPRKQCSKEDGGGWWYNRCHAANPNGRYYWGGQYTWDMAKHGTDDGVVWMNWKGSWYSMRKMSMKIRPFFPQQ
T1 sequence 3: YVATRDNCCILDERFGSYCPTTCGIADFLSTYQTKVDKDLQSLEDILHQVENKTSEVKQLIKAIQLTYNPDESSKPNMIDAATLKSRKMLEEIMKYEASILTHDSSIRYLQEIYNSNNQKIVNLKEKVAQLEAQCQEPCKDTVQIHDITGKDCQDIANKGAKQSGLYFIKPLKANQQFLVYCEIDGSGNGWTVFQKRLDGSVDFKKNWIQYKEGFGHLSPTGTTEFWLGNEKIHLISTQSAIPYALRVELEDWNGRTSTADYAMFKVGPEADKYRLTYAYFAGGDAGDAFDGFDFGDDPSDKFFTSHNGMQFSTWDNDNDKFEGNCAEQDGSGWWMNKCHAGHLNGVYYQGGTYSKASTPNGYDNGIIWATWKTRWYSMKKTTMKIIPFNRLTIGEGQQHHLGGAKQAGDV

fibrinogen (Fg) = molecular target: T2, fibrinogen (Fg) (human, UniProt P02671 20-629; P02675 31-491; P02679 27-437); assay: ELISA, increasing rSdrG(50-597) on immobilized Fg, anti-His-tag detection; apparent KD
T2 construct: Purified native Fg bought from Enzyme Research Labs, coated on microtiter wells (1 µg); also called human Fg; immobilized Fg
T2 sequence 1: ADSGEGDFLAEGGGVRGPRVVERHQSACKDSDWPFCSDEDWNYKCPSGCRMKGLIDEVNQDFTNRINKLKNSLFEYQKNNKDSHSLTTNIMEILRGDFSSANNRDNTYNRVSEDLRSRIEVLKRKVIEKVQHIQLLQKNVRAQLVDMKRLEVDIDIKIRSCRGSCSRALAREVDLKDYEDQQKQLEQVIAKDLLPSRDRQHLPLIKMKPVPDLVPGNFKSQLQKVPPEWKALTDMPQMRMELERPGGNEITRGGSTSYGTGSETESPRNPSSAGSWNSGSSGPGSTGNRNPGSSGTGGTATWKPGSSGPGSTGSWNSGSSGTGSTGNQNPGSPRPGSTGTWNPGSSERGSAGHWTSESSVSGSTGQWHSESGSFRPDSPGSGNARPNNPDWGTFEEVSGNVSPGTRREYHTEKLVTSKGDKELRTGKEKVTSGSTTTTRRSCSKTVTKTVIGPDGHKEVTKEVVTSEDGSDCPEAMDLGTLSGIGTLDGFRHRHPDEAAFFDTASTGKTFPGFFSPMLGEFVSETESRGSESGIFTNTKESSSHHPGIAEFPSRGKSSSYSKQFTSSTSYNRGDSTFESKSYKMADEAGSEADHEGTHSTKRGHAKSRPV
T2 sequence 2: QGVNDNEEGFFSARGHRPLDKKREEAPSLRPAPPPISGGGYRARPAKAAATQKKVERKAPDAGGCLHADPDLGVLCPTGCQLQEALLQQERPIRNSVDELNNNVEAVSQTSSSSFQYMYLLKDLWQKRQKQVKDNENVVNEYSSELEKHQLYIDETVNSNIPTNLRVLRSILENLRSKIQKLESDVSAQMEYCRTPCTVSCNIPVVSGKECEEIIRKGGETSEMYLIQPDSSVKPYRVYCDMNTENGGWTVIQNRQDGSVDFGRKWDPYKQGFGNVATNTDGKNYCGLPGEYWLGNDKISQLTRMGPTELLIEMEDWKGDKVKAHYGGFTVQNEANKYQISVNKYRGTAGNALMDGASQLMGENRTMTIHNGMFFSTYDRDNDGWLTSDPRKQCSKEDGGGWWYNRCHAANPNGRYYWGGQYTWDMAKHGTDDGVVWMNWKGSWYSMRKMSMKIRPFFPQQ
T2 sequence 3: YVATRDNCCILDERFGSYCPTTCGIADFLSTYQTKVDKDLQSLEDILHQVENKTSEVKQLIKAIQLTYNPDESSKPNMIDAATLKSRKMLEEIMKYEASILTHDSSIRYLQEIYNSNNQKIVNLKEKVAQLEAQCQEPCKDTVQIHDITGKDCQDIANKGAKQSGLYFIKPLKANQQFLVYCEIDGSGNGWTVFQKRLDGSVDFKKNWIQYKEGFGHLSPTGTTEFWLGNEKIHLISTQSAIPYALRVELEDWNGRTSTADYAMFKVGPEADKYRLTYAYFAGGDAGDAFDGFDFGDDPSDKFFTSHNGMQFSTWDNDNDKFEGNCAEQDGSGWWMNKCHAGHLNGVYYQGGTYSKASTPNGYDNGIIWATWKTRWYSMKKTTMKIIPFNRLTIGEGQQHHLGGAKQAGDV

Aα chain of Fg = molecular target: T3, Aα chain of Fg (UniProt P02671 20-629); assay: Western ligand blot, biotin labeled rSdrG(50-597)
T3 construct: Chain of native Fg on a Western ligand blot
T3 sequence: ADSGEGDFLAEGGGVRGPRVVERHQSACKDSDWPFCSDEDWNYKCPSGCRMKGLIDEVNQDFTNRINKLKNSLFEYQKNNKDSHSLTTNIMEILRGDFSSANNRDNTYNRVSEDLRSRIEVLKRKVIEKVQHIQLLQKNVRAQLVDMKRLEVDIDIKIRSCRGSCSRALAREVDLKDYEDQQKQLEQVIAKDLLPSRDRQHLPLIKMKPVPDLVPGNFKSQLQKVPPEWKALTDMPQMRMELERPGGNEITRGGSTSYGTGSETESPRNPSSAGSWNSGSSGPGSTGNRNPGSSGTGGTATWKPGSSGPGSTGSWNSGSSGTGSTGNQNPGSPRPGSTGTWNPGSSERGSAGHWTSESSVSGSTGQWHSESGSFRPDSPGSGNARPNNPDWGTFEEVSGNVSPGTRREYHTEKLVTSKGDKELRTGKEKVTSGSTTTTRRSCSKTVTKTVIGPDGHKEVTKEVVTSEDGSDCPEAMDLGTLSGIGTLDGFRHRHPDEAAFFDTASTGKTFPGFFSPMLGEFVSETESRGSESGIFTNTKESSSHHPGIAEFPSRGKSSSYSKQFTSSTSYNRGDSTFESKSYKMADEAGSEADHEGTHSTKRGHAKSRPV

[1] = molecular target: T4, Fg treated with contortrixobin (human, UniProt P02671 20-629; P02675 45-491; P02679 27-437); assay: ELISA of Example 2, Fg-coated wells pretreated with protease, biotin labeled rSdrG(50-597)
T4 construct: Fg coated on wells and treated for 30 min at room temperature with contortrixobin from Agkistrodon contortrix contortrix; also called contortrixobin-treated Fg
T4 sequence 1: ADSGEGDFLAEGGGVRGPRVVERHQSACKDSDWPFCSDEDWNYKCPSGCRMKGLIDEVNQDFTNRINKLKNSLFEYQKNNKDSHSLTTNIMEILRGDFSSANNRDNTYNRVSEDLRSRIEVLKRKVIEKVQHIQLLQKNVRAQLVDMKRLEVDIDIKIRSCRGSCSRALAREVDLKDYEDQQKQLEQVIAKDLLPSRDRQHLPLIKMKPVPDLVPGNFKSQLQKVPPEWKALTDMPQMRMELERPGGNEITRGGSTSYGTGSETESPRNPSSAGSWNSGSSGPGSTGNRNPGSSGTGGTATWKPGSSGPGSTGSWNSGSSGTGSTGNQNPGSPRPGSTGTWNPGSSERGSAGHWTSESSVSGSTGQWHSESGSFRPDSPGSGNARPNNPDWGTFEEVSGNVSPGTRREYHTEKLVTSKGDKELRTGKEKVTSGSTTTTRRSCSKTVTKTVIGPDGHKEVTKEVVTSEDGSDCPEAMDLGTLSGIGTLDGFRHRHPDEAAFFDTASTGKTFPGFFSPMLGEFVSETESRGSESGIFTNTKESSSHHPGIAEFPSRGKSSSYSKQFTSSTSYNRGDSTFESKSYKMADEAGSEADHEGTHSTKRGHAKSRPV
T4 sequence 2: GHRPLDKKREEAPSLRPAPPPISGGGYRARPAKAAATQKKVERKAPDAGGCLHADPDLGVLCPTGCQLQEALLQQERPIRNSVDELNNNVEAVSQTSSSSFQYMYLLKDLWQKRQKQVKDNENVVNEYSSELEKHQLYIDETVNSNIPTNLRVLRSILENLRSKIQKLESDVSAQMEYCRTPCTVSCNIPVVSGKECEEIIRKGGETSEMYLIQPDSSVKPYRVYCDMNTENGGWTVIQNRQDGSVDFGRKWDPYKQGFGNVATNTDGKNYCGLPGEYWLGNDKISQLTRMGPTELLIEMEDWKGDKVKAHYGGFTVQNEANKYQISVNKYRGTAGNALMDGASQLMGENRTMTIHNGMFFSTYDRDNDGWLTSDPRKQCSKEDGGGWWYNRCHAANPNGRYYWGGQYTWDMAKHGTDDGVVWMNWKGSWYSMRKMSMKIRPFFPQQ
T4 sequence 3: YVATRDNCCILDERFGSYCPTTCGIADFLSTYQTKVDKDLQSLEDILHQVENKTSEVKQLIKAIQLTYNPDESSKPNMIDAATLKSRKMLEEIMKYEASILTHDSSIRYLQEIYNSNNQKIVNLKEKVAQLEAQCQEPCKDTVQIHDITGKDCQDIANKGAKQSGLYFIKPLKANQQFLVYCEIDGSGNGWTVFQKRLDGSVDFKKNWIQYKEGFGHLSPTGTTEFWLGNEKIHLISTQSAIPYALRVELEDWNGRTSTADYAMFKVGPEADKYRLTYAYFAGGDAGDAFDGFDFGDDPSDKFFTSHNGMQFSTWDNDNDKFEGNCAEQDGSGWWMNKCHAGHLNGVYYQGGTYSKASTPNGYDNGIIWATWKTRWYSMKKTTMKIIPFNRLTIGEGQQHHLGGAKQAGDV

B1: rSdrG(50-597) (other)
chain: HHHHHHAEENTVQDVKDSNMDDELSDSNDQSSNEEKNDVINNSQSINTDDDNQIKKEETNSNDAIENRSKDITQSTTNVDENEATFLQKTPQDNTQLKEEVVKEPSSVESSNSSMDTAQQPSHTTINSEASIQTSDNEENSRVSDFANSKIIESNTESNKEENTIEQPNKVREDSITSQPSSYKNIDEKISNQDELLNLPINEYENKVRPLSTTSAQPSSKRVTVNQLAAEQGSNVNHLIKVTDQSITEGYDDSDGIIKAHDAENLIYDVTFEVDDKVKSGDTMTVNIDKNTVPSDLTDSFAIPKIKDNSGEIIATGTYDNTNKQITYTFTDYVDKYENIKAHLKLTSYIDKSKVPNNNTKLDVEYKTALSSVNKTITVEYQKPNENRTANLQSMFTNIDTKNHTVEQTIYINPLRYSAKETNVNISGNGDEGSTIIDDSTIIKVYKVGDNQNLPDSNRIYDYSEYEDVTNDDYAQLGNNNDVNINFGNIDSPYIIKVISKYDPNKDDYTTIQQTVTMQTTINEYTGEFRTASYDNTIAFSTSSGQGQGDLPPE
notes: Used biotin labeled in the Western ligand blots and in the ELISAs on protease-treated Fg; also called recombinant SdrG A-region; recombinant form of the N-terminal A-region of SdrG
binding result (thrombin digested Fg): no binding (tested: 25-1000 nM) | Kd (fibrinogen (Fg)): 0.09 µM | binding result (Aα chain of Fg): no binding | binding result [1]: no binding (tested: 25-1000 nM)
